Measurements as given in US20170210818A1 (CALIFORNIA INSTITUTE FOR BIOMEDICAL RESEARCH, published 2017).

Target: T1, CD19 on Nalm-6 cells (UniProt P15391 20-556, limits assumed)
T1 construct: whole, on cells; also called Nalm-6 cells (CD19 positive cells)
T1 sequence (looked up): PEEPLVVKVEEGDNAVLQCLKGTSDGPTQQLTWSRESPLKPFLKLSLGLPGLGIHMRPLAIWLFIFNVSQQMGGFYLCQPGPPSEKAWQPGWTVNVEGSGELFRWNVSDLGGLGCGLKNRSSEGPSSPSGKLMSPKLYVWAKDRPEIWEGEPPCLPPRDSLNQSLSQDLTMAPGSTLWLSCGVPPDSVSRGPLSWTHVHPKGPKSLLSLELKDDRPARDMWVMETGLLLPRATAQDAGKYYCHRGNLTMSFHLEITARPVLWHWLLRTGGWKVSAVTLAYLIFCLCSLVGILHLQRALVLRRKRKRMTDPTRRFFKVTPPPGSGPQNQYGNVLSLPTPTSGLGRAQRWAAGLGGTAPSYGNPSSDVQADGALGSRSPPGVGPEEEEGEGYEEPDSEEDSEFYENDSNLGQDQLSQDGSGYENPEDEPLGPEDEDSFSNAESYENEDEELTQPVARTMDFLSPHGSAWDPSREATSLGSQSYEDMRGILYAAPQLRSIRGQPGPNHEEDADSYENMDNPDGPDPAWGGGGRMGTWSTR
Assay: flow cytometry on Nalm-6 cells, 10 nM, fluorescent anti-human IgG secondary antibody
Experimental: Nalm-6 and K562 cells were cultured according to vendor's protocol. Cells were centrifuged and blocked in 1× PBS with 10% FBS at 4° C. for 1 hour. […] The cell suspensions were shaken for 1 hour at 4° C. The cells were washed 3 times with PBS. The cells were incubated with a secondary antibody (e.g., Fluorescein-anti-human IgG or A488-anti-hIgG) at 4° C. for 1 hour. The cells were washed 3 times with PBS and resuspended in PBS. The cellular fluorescence distribution was determined by flow cytometry.

- binding result: binds
B1: anti-CD19ScFv-UCHT1-CL(Fab) (bispecific antibody)
heavy: EVQLQQSGPELVKPGASMKISCKASGYSFTGYTMNWVKQSHGKNLEWMGLINPYKGVSTYNQKFKDKATLTVDKSSSTAYMELLSLTSEDSAVYYCARSGYYGDSDWYFDVWGQGTTLTVFSASTKGPSVFPLAPSSKSTSGGTAALGCLVKDYFPEPVTVSWNSGALTSGVHTFPAVLQSSGLYSLSSVVTVPSSSLGTQTYICNVNHKPSNTKVDKKVEPKSC
light: DIQMTQTTSSLSASLGDRVTISCRASQDIRNYLNWYQQKPDGTVKLLIYYTSRLHSGVPSKFSGSGSGTDYSLTISNLEQEDIATYFCQQGNTLPWTFAGGTKLEIKRTVAAPSVFIFPPSDEQLKSGTASVVCLLNNFYPREAKVQWKVDNALQSGNSQESVTEQDSGGGGSGGGGSGGGGSEVKLQESGPGLVAPSQSLSVTCTVSGVSLPDYGVSWIRQPPRKGLEWLGVIWGSETTYYNSALKSRLTIIKDNSKSQVFLKMNSLQTDDTAIYYCAKHYYYGGSYAMDYWGQGTSVTVSSGGGGSGGGGSGGGGSDIQMTQTTSSLSASLGDRVTISCRASQDISKYLNWYQQKPDGTVKLLIYHTSRLHSGVPSRFSGSGSGTDYSLTISNLEQEDIATYFCQQGNTLPYTFGGGTKLEIGGGGSDSTYSLSSTLTLSKADYEKHKVYACEVTHQGLSSPVTKSFNRGEC
